# Reference: patent publication US20260176319A1 (KALLYOPE, published 2026)
# Starred links: 1 amine or outer side, 2 acyl side, 3 side chain; linkers in the order of their positions; H or OH if unused. Non-standard residues stand in square brackets, D forms with d. No end group written: not given here. *: point of attachment. Trp(7-F) = N[C@@H](Cc1c[nH]c2c(F)cccc12)C(=O)O; Trp(7-Me) = Cc1cccc2c(C[C@H](N)C(=O)O)c[nH]c12; C20 diacid = O=C(O)CCCCCCCCCCCCCCCCCCC(=O)*; d(γGlu) = O=C(O)[C@@H](CCC(=O)[*:2])N[*:1]; C18 diacid = O=C(O)CCCCCCCCCCCCCCCCC(=O)*; γGlu = O=C(O)[C@H](CCC(=O)[*:2])N[*:1]; Palmitoyl = CCCCCCCCCCCCCCCC(=O)*; 3Pal = N[C@@H](Cc1cccnc1)C(=O)O; Nle = CCCC[C@H](N)C(=O)O; AEEA = NCCOCCOCC(=O)O; Aib = CC(C)(N)C(=O)O; βAla = NCCC(=O)O; Sar = CNCC(=O)O
# Target: human GRP receptor (human, UniProt P30550 1-384)
# Sequence (P30550 whole entry): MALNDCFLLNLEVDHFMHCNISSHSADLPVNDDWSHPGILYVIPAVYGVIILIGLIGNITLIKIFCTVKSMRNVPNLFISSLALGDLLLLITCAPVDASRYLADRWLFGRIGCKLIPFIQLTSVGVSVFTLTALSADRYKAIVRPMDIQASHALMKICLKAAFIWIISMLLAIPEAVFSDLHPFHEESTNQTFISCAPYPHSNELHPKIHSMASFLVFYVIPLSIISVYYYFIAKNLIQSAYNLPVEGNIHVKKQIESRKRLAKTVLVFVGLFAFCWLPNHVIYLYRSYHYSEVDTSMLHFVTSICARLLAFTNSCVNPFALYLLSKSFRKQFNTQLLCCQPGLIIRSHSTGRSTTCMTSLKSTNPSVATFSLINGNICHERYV
# Experiment: cell-based or functional assay
row,Binder,hIP1 GRPR EC50 [nM]
1,{C20 diacid}-[γGlu][AEEA][AEEA]GNHWAV[dA]HL[Nle] [Peptide 148],126
2,{C20 diacid}-[γGlu][AEEA][AEEA]GNHWAV[dA]HL[Nle]-NH2 (SMILES CCCC[C@H](NC(=O)[C@H](CC(C)C)NC(=O)[C@H](Cc1c[nH]cn1)NC(=O)[C@@H](C)NC(=O)[C@@H](NC(=O)[C@H](C)NC(=O)[C@H](Cc1c[nH]c2ccccc12)NC(=O)[C@H](Cc1c[nH]cn1)NC(=O)[C@H](CC(N)=O)NC(=O)CNC(=O)COCCOCCNC(=O)COCCOCCNC(=O)CC[C@H](NC(=O)CCCCCCCCCCCCCCCCCCC(=O)O)C(=O)O)C(C)C)C(N)=O) [Peptide 149],1.89
3,{C18 diacid}-[γGlu][AEEA][AEEA]GNH[Trp(7-Me)]AV[dA]HL[Nle]R-NH2 (SMILES CCCC[C@H](NC(=O)[C@H](CC(C)C)NC(=O)[C@H](Cc1c[nH]cn1)NC(=O)[C@@H](C)NC(=O)[C@@H](NC(=O)[C@H](C)NC(=O)[C@H](Cc1c[nH]c2c(C)cccc12)NC(=O)[C@H](Cc1c[nH]cn1)NC(=O)[C@H](CC(N)=O)NC(=O)CNC(=O)COCCOCCNC(=O)COCCOCCNC(=O)CC[C@H](NC(=O)CCCCCCCCCCCCCCCCC(=O)O)C(=O)O)C(C)C)C(=O)N[C@@H](CCCNC(=N)N)C(N)=O) [Peptide 134],> 10000
4,{C18 diacid}-[γGlu][AEEA][AEEA]RRHWAV[dA]HL[Nle]-NH2 (SMILES CCCC[C@H](NC(=O)[C@H](CC(C)C)NC(=O)[C@H](Cc1c[nH]cn1)NC(=O)[C@@H](C)NC(=O)[C@@H](NC(=O)[C@H](C)NC(=O)[C@H](Cc1c[nH]c2ccccc12)NC(=O)[C@H](Cc1c[nH]cn1)NC(=O)[C@H](CCCNC(=N)N)NC(=O)[C@H](CCCNC(=N)N)NC(=O)COCCOCCNC(=O)COCCOCCNC(=O)CC[C@H](NC(=O)CCCCCCCCCCCCCCCCC(=O)O)C(=O)O)C(C)C)C(N)=O) [Peptide 141],7.72
5,{C18 diacid}-[γGlu][AEEA][AEEA]GNHWAV[dA]HL[Nle] [Peptide 146],279
6,{C18 diacid}-[γGlu][AEEA][AEEA]GDHW[dA]V[dA]HL[Nle]-NH2 (SMILES CCCC[C@H](NC(=O)[C@H](CC(C)C)NC(=O)[C@H](Cc1c[nH]cn1)NC(=O)[C@@H](C)NC(=O)[C@@H](NC(=O)[C@@H](C)NC(=O)[C@H](Cc1c[nH]c2ccccc12)NC(=O)[C@H](Cc1c[nH]cn1)NC(=O)[C@H](CC(=O)O)NC(=O)CNC(=O)COCCOCCNC(=O)COCCOCCNC(=O)CC[C@H](NC(=O)CCCCCCCCCCCCCCCCC(=O)O)C(=O)O)C(C)C)C(N)=O) [Peptide 139],> 10000
7,{C18 diacid}-[γGlu][AEEA][AEEA]RNHWAV[dA]HL[Nle]-NH2 (SMILES CCCC[C@H](NC(=O)[C@H](CC(C)C)NC(=O)[C@H](Cc1c[nH]cn1)NC(=O)[C@@H](C)NC(=O)[C@@H](NC(=O)[C@H](C)NC(=O)[C@H](Cc1c[nH]c2ccccc12)NC(=O)[C@H](Cc1c[nH]cn1)NC(=O)[C@H](CC(N)=O)NC(=O)[C@H](CCCNC(=N)N)NC(=O)COCCOCCNC(=O)COCCOCCNC(=O)CC[C@H](NC(=O)CCCCCCCCCCCCCCCCC(=O)O)C(=O)O)C(C)C)C(N)=O) [Peptide 145],5.2
8,{C18 diacid}-[γGlu][AEEA][AEEA][dF]NHWAV[dA]HL[Nle]-NH2 (SMILES CCCC[C@H](NC(=O)[C@H](CC(C)C)NC(=O)[C@H](Cc1c[nH]cn1)NC(=O)[C@@H](C)NC(=O)[C@@H](NC(=O)[C@H](C)NC(=O)[C@H](Cc1c[nH]c2ccccc12)NC(=O)[C@H](Cc1c[nH]cn1)NC(=O)[C@H](CC(N)=O)NC(=O)[C@@H](Cc1ccccc1)NC(=O)COCCOCCNC(=O)COCCOCCNC(=O)CC[C@H](NC(=O)CCCCCCCCCCCCCCCCC(=O)O)C(=O)O)C(C)C)C(N)=O) [Peptide 143],10.7
9,Palmitoyl-[d(γGlu)][AEEA][AEEA]GNHW[Aib]V[dA]HL[Nle]-NH2 (SMILES CCCCCCCCCCCCCCCC(=O)N[C@H](CCC(=O)NCCOCCOCC(=O)NCCOCCOCC(=O)NCC(=O)N[C@@H](CC(N)=O)C(=O)N[C@@H](Cc1c[nH]cn1)C(=O)N[C@@H](Cc1c[nH]c2ccccc12)C(=O)NC(C)(C)C(=O)N[C@H](C(=O)N[C@H](C)C(=O)N[C@@H](Cc1c[nH]cn1)C(=O)N[C@@H](CC(C)C)C(=O)N[C@@H](CCCC)C(N)=O)C(C)C)C(=O)O) [Peptide 11],3.2
10,{C18 diacid}-[γGlu][AEEA][AEEA]GNHWAV[βAla]HL[Nle]-NH2 (SMILES CCCC[C@H](NC(=O)[C@H](CC(C)C)NC(=O)[C@H](Cc1c[nH]cn1)NC(=O)CCNC(=O)[C@@H](NC(=O)[C@H](C)NC(=O)[C@H](Cc1c[nH]c2ccccc12)NC(=O)[C@H](Cc1c[nH]cn1)NC(=O)[C@H](CC(N)=O)NC(=O)CNC(=O)COCCOCCNC(=O)COCCOCCNC(=O)CC[C@H](NC(=O)CCCCCCCCCCCCCCCCC(=O)O)C(=O)O)C(C)C)C(N)=O) [Peptide 142],3.55
11,{C20 diacid}-[γGlu][AEEA][AEEA]GRHWAV[dA]HL[Nle]-NH2 (SMILES CCCC[C@H](NC(=O)[C@H](CC(C)C)NC(=O)[C@H](Cc1c[nH]cn1)NC(=O)[C@@H](C)NC(=O)[C@@H](NC(=O)[C@H](C)NC(=O)[C@H](Cc1c[nH]c2ccccc12)NC(=O)[C@H](Cc1c[nH]cn1)NC(=O)[C@H](CCCNC(=N)N)NC(=O)CNC(=O)COCCOCCNC(=O)COCCOCCNC(=O)CC[C@H](NC(=O)CCCCCCCCCCCCCCCCCCC(=O)O)C(=O)O)C(C)C)C(N)=O) [Peptide 150],4.09
12,{C18 diacid}-[γGlu][AEEA][AEEA][AEEA][AEEA]GRH[Trp(7-F)]AV[dA]HL[Nle][Sar]-NH2 (SMILES CCCC[C@H](NC(=O)[C@H](CC(C)C)NC(=O)[C@H](Cc1c[nH]cn1)NC(=O)[C@@H](C)NC(=O)[C@@H](NC(=O)[C@H](C)NC(=O)[C@H](Cc1c[nH]c2c(F)cccc12)NC(=O)[C@H](Cc1c[nH]cn1)NC(=O)[C@H](CCCNC(=N)N)NC(=O)CNC(=O)COCCOCCNC(=O)COCCOCCNC(=O)COCCOCCNC(=O)COCCOCCNC(=O)CC[C@H](NC(=O)CCCCCCCCCCCCCCCCC(=O)O)C(=O)O)C(C)C)C(=O)N(C)CC(N)=O) [Peptide 137],488
13,{C18 diacid}-[γGlu][AEEA][AEEA]GQHWAV[dA]HL[Nle]-NH2 (SMILES CCCC[C@H](NC(=O)[C@H](CC(C)C)NC(=O)[C@H](Cc1c[nH]cn1)NC(=O)[C@@H](C)NC(=O)[C@@H](NC(=O)[C@H](C)NC(=O)[C@H](Cc1c[nH]c2ccccc12)NC(=O)[C@H](Cc1c[nH]cn1)NC(=O)[C@H](CCC(N)=O)NC(=O)CNC(=O)COCCOCCNC(=O)COCCOCCNC(=O)CC[C@H](NC(=O)CCCCCCCCCCCCCCCCC(=O)O)C(=O)O)C(C)C)C(N)=O) [Peptide 147],5.72
14,{C18 diacid}-[γGlu][AEEA][AEEA][AEEA][AEEA]GAH[Trp(7-F)]AV[dA]HL[Nle]-NH2 (SMILES CCCC[C@H](NC(=O)[C@H](CC(C)C)NC(=O)[C@H](Cc1c[nH]cn1)NC(=O)[C@@H](C)NC(=O)[C@@H](NC(=O)[C@H](C)NC(=O)[C@H](Cc1c[nH]c2c(F)cccc12)NC(=O)[C@H](Cc1c[nH]cn1)NC(=O)[C@H](C)NC(=O)CNC(=O)COCCOCCNC(=O)COCCOCCNC(=O)COCCOCCNC(=O)COCCOCCNC(=O)CC[C@H](NC(=O)CCCCCCCCCCCCCCCCC(=O)O)C(=O)O)C(C)C)C(N)=O) [Peptide 136],40.5
15,{C18 diacid}-[γGlu][AEEA][AEEA]FNHWAV[βAla]HL[Nle]-NH2 (SMILES CCCC[C@H](NC(=O)[C@H](CC(C)C)NC(=O)[C@H](Cc1c[nH]cn1)NC(=O)CCNC(=O)[C@@H](NC(=O)[C@H](C)NC(=O)[C@H](Cc1c[nH]c2ccccc12)NC(=O)[C@H](Cc1c[nH]cn1)NC(=O)[C@H](CC(N)=O)NC(=O)[C@H](Cc1ccccc1)NC(=O)COCCOCCNC(=O)COCCOCCNC(=O)CC[C@H](NC(=O)CCCCCCCCCCCCCCCCC(=O)O)C(=O)O)C(C)C)C(N)=O) [Peptide 140],4.8
16,{C20 diacid}-[γGlu][AEEA][AEEA]GNH[Trp(7-F)]AV[dA]HL[Nle][Sar]-NH2 (SMILES CCCC[C@H](NC(=O)[C@H](CC(C)C)NC(=O)[C@H](Cc1c[nH]cn1)NC(=O)[C@@H](C)NC(=O)[C@@H](NC(=O)[C@H](C)NC(=O)[C@H](Cc1c[nH]c2c(F)cccc12)NC(=O)[C@H](Cc1c[nH]cn1)NC(=O)[C@H](CC(N)=O)NC(=O)CNC(=O)COCCOCCNC(=O)COCCOCCNC(=O)CC[C@H](NC(=O)CCCCCCCCCCCCCCCCCCC(=O)O)C(=O)O)C(C)C)C(=O)N(C)CC(N)=O) [Peptide 138],81.8
17,{C18 diacid}-[γGlu][AEEA][AEEA]FN[3Pal]WAV[βAla]HL[Nle]-NH2 (SMILES CCCC[C@H](NC(=O)[C@H](CC(C)C)NC(=O)[C@H](Cc1c[nH]cn1)NC(=O)CCNC(=O)[C@@H](NC(=O)[C@H](C)NC(=O)[C@H](Cc1c[nH]c2ccccc12)NC(=O)[C@H](Cc1cccnc1)NC(=O)[C@H](CC(N)=O)NC(=O)[C@H](Cc1ccccc1)NC(=O)COCCOCCNC(=O)COCCOCCNC(=O)CC[C@H](NC(=O)CCCCCCCCCCCCCCCCC(=O)O)C(=O)O)C(C)C)C(N)=O) [Peptide 144],5.99
